Experimental data taken from the supplement of paper PMC7125110.
± gives the standard error. For part of these data: This sample holds only a part of the variants without activity.

B1: glmS ribozyme (parent)
chain: AUAAAAGCGCCAGAACUACAGAAAUGUAGUUGACGAGGAGGAGGUUUAUCGAAUUUUCGGCGGAUGCCUCCAAA

Experiments:
Settings in all cases: with glucosamine-6-phosphate
glucosamine-6-phosphate [1] = variants of: B1; test: kcat; higher = faster cleavage; RNA array
How it was run: (§1)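 Barcoded ribozyme variants were transcribed in situ on sequenced MiSeq chips by E. coli RNA polymerase. At 37 °C, a hybridised Cy3 probe tracked them while glucosamine-6-phosphate (40 μM to 10 mM) in HEPES/KCl/Mg(OAc)2 buffer flowed in and tiles were imaged over ~14 h. Per-tile medians of signals normalised to baseline and to non-cleaving reference variants were fit to one- or two-exponential decays, giving kobs. kcat and KM came from weighted Michaelis–Menten fits across concentrations.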

glucosamine-6-phosphate [2] = variants of: B1; test: KM; higher = weaker cofactor use; RNA array
How it was run: as §1

glucosamine-6-phosphate [3] = variants of: B1; test: self-cleavage kobs at 640 uM GlcN6P; higher = faster cleavage; RNA array
How it was run: as §1

glucosamine-6-phosphate [4] = variants of: B1; test: self-cleavage kobs at 2500 uM GlcN6P; higher = faster cleavage; RNA array
How it was run: as §1

glucosamine-6-phosphate [5] = variants of: B1; test: self-cleavage kobs at 10000 uM GlcN6P; higher = faster cleavage; RNA array
How it was run: as §1

glucosamine-6-phosphate [6] = variants of: B1; test: self-cleavage kobs at 40 uM GlcN6P; higher = faster cleavage; RNA array
How it was run: as §1

glucosamine-6-phosphate [7] = variants of: B1; test: self-cleavage kobs at 160 uM GlcN6P; higher = faster cleavage; RNA array
How it was run: as §1

Row | Variant | kcat (glucosamine-6-phosphate [1]) | KM (glucosamine-6-phosphate [2]) | self-cleavage kobs at 640 uM GlcN6P (glucosamine-6-phosphate [3]) | self-cleavage kobs at 2500 uM GlcN6P (glucosamine-6-phosphate [4]) | self-cleavage kobs at 10000 uM GlcN6P (glucosamine-6-phosphate [5]) | self-cleavage kobs at 40 uM GlcN6P (glucosamine-6-phosphate [6]) | self-cleavage kobs at 160 uM GlcN6P (glucosamine-6-phosphate [7])
1 | AUAAAAGCGCCCGAACUACAGAAAUGUAGUUGACGAGUAGGAGGUUUAUCGAAUUUUCGGCGGAUGCCUCCAAA | < 1e-05 s⁻¹ | 1280 ± 390 µM | – | – | – | – | –
2 | AUAAAAGCGCCAGAACUACAGAAAUGUAGUUGACGAGGAGGAGGUUCAUCGAAUUUUCGGCGGAUGCGUCCAAA | 6.88e-05 ± 2.3e-06 s⁻¹ | 573 ± 80 µM | 3.62e-05 ± 7.3e-06 s⁻¹ | 5.33e-05 ± 1.1e-05 s⁻¹ | 6.6e-05 ± 7.8e-06 s⁻¹ | – | –
3 | AUAAAAGCGCCAGAACUACAGAAAUGUAGUUGACGAGGAGGACGGUUAUCGAAUUUUCGGCGGAUGCCUCCAAA | 0.00237 ± 0.00082 s⁻¹ | – | 0.000694 ± 0.00012 s⁻¹ | 0.00109 ± 0.00024 s⁻¹ | 0.00211 ± 0.00027 s⁻¹ | 8.35e-05 ± 1.2e-05 s⁻¹ | 0.000135 ± 2.3e-05 s⁻¹
4 | AUAAAAGCGCCAUAACUACAGAAAUGUAGUUCACGAGGAGGAGGUUUAUCGAAUUUUCGGCGGAUGCCUCCAAA | 0.000465 ± 0.00015 s⁻¹ | – | 7.27e-05 ± 1e-05 s⁻¹ | 0.000121 ± 1.6e-05 s⁻¹ | 0.000328 ± 2.8e-05 s⁻¹ | – | –
5 | AUAAAAGCGCCAGAACUACAGAAAUGUAGUUGACGAGGAGGAGGUUUAUCGAAUGUUCGGCGGAGGCCUCCAAA | 0.00419 ± 0.00048 s⁻¹ | 3440 ± 580 µM | 0.000628 ± 0.0001 s⁻¹ | 0.00164 ± 0.00022 s⁻¹ | 0.0033 ± 0.00045 s⁻¹ | 5.26e-05 ± 1.1e-05 s⁻¹ | 0.00022 ± 6.1e-05 s⁻¹
6 | AUAAAAGCGCCAGAACUACAGAAAUGUAGUUGACGAGGAGGUGGUUUAUCGAAUUUUCGGCGGAGGCAUCCAAA | 2.17e-05 ± 1.1e-05 s⁻¹ | – | – | – | – | – | < 1e-05 s⁻¹
7 | AUAAAAGCGCCAGAACUACAGAAAUGUAGUUGACGAGGAGGAGGUUUAUCAAAUUUUCGGCGGAUGCAUCCAAA | 2.97e-05 ± 4.5e-06 s⁻¹ | – | – | – | – | – | –
8 | AUAAAAGCGUCAGAACUACAGAAAUGUAGUUGACGAGGAGGAGGUUUAUCGCAUUUUCGGAGGAUGCCACCAAA | < 1e-05 s⁻¹ | – | – | – | – | – | –
9 | AUAAAGGCGCCAGAACUACAGAAAUGUAGUUGACGAGGAGGAGGUUUAUCGACAUUUCGGCGGAUGCCUCCAAA | 5.34e-05 ± 9e-06 s⁻¹ | – | – | 5.76e-05 ± 1.9e-05 s⁻¹ | 4.91e-05 ± 9.2e-06 s⁻¹ | < 1e-05 s⁻¹ | < 1e-05 s⁻¹
10 | AUAAAAGCGCCAGAACUACAGAAAUGUAGUUGACGAGGAGGAGGAUUAUCGAAUUUUCGGCGGAUGCCUCGAAA | 0.00102 ± 0.00046 s⁻¹ | – | 0.000442 ± 9.7e-05 s⁻¹ | 0.00123 ± 0.00059 s⁻¹ | 0.00177 ± 0.00039 s⁻¹ | 0.000108 ± 2e-05 s⁻¹ | 0.00023 ± 8.2e-05 s⁻¹
